The record followed here is paper doi:10.1101/2024.07.30.605722 (bioRxiv, 2024).

One data set deals with PDIA6 a^0 domain (human). The data set can be described thus: co-sedimentation.
The data set “native MS” deals with the molecule itself. The data set can be described thus: native MS.

As for “MBP fusion protein of PDIA6 b domain (domain or fragment)”, the b amount left in the supernatant with PDIA6 a^0 domain (human) is 60%.

B1: PDIA6 (enzyme, human, UniProt Q15084 20-440, looked up)
chain: LYSSSDDVIELTPSNFNREVIQSDSLWLVEFYAPWCGHCQRLTPEWKKAATALKDVVKVGAVDADKHHSLGGQYGVQGFPTIKIFGSNKNRPEDYQGGRTGEAIVDAALSALRQLVKDRLGGRSGGYSSGKQGRSDSSSKKDVIELTDDSFDKNVLDSEDVWMVEFYAPWCGHCKNLEPEWAAAASEVKEQTKGKVKLAAVDATVNQVLASRYGIRGFPTIKIFQKGESPVDYDGGRTRSDIVSRALDLFSDNAPPPELLEIINEDIAKRTCEEHQLCVVAVLPHILDTGAAGRNSYLEVLLKLADKYKKKMWGWLWTEAGAQSELETALGIGGFGYPAMAAINARKMKFALLKGSFSEQGINEFLRELSFGRGSTAPVGGGAFPTIVEREPWDGRDGELPVEDDIDLSDVELDDLGKDEL
Turning to B1, the “stoichiometry N” value in “native MS” was 2.

The term stoichiometry N denotes a count of units in the complex or per binding partner.
